Columns and labels:
MutS R272A = biological target: T1, MutS R272A (Pseudomonas aeruginosa, UniProt Q9HY08 1-855, R272A); assay: EMSA
T1 sequence: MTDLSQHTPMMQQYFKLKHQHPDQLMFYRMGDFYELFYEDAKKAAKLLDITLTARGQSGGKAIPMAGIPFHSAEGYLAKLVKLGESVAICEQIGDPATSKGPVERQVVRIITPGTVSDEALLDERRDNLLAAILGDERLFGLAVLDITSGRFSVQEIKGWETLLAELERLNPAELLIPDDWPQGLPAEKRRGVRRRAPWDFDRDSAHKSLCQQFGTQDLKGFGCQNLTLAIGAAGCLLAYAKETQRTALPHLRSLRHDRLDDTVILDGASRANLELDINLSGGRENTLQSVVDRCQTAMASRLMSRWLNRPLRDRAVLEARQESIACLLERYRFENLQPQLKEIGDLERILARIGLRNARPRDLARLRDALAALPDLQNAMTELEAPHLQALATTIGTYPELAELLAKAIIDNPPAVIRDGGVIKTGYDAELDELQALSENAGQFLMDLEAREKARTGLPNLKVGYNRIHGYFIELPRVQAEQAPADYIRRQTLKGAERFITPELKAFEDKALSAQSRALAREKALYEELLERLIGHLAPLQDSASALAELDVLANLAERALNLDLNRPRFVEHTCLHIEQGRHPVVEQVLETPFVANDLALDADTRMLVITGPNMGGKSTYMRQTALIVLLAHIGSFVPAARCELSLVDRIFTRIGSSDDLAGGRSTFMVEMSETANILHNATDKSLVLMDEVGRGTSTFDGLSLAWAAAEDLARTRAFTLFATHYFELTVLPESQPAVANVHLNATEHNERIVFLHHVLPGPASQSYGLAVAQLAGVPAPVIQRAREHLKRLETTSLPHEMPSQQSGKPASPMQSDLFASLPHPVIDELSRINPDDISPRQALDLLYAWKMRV

MutS N279A = biological target: T2, MutS N279A (Pseudomonas aeruginosa, UniProt Q9HY08 1-855, N279A); assay: EMSA
T2 sequence: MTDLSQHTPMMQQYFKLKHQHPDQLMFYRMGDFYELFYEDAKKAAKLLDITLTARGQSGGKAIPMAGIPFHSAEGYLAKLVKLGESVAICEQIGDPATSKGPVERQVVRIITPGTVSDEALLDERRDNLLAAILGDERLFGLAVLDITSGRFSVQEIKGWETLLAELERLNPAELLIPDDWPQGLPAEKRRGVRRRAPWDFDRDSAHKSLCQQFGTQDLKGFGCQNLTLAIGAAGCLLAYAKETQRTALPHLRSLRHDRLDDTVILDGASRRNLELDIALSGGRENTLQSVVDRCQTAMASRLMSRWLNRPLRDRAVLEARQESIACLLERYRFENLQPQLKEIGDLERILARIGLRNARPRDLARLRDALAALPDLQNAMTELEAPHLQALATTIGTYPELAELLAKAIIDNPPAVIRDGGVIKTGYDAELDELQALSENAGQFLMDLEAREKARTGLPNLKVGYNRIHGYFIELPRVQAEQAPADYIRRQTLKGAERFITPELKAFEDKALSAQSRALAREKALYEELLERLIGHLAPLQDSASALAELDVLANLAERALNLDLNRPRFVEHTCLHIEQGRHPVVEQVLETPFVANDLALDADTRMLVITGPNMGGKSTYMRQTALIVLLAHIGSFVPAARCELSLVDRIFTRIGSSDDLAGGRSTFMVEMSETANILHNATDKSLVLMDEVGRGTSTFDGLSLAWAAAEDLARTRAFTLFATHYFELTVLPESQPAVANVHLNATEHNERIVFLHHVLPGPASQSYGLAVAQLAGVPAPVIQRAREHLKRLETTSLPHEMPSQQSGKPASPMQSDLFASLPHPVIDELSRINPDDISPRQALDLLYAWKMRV

MutS R842E = biological target: T3, MutS R842E (Pseudomonas aeruginosa, UniProt Q9HY08 1-855, R842E); assay: native PAGE shift
T3 sequence: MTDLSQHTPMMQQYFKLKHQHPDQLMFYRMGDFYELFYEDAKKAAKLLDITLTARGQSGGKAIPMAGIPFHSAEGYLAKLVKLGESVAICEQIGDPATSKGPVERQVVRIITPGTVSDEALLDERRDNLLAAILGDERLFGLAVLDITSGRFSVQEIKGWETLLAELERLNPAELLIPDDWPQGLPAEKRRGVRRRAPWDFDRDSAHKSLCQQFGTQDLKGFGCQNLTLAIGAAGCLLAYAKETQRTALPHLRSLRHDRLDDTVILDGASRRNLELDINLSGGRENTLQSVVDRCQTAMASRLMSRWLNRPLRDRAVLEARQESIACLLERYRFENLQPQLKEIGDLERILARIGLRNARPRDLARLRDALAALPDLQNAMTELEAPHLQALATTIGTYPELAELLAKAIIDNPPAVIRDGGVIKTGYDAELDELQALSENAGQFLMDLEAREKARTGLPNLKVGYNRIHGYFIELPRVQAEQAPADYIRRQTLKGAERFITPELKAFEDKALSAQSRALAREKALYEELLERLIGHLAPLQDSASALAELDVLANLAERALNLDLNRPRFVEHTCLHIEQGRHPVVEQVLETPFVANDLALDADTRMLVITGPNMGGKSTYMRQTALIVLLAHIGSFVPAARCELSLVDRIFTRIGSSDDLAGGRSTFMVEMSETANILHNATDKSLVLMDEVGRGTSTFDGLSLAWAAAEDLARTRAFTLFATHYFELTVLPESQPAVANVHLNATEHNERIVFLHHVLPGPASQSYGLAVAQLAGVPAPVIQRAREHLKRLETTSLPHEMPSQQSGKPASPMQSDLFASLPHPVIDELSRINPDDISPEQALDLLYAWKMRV

B1: GT-pDNA (GT 8 nt from 3'-OH) (dsDNA)
DNA 1: ATGTGAATCAGTATGGTTGCTATCTGC
DNA 2: ATTTCCTTCAGCAGATAGTAACCATACTGATTCACAT
- Kd (MutS R272A): 49.3 ± 1 nM
- Kd (MutS N279A): 63.2 ± 2.4 nM

B2: pDNA (AT) (dsDNA)
DNA 1: ATGTGAATCAGTATGGTTACTATCTGC
DNA 2: ATTTCCTTCAGCAGATAGTAACCATACTGATTCACAT
- Kd (MutS R272A): 143 ± 8.6 nM
- Kd (MutS N279A): 430 ± 18 nM
- binding result (MutS R842E): binds

B3: GT-dsDNA (GT 18 nt from 3' end) (dsDNA)
DNA 1: ATGTGAATCAGTATGGTTGCTATCTGCTGAAGGAAAT
DNA 2: ATTTCCTTCAGCAGATAGTAACCATACTGATTCACAT
- Kd (MutS R272A): 38.2 ± 0.7 nM
- Kd (MutS N279A): 41.3 ± 5.2 nM
- binding result (MutS R842E): binds

B4: dsDNA (dsDNA)
DNA 1: ATGTGAATCAGTATGGTTACTATCTGCTGAAGGAAAT
DNA 2: ATTTCCTTCAGCAGATAGTAACCATACTGATTCACAT
- Kd (MutS R272A): 309 ± 20.9 nM
- Kd (MutS N279A): 358 ± 36.9 nM
- binding result (MutS R842E): binds

Source: publication doi:10.1101/2020.05.01.070730 (bioRxiv, 2020)
